Reference: US20160272689A1

Target: Fc-tagged extracellular domain of mouse RPTPσ (wild type) (mouse) (UniProt B0V2N1)
Test: ELISA: Fc-tagged RPTPσ (2 µg/ml) on protein G plates; biotinylated aggrecan 5 µg/ml preincubated with protamine 0-5 µg/ml; streptavidin-HRP, A450

Chain of biotinylated bovine aggrecan, P13608 17-2364 (ligand; biotinylated (sites not stated); natural chondroitin sulphate side chains of the proteoglycan) (P13608 17-2364 limits assumed): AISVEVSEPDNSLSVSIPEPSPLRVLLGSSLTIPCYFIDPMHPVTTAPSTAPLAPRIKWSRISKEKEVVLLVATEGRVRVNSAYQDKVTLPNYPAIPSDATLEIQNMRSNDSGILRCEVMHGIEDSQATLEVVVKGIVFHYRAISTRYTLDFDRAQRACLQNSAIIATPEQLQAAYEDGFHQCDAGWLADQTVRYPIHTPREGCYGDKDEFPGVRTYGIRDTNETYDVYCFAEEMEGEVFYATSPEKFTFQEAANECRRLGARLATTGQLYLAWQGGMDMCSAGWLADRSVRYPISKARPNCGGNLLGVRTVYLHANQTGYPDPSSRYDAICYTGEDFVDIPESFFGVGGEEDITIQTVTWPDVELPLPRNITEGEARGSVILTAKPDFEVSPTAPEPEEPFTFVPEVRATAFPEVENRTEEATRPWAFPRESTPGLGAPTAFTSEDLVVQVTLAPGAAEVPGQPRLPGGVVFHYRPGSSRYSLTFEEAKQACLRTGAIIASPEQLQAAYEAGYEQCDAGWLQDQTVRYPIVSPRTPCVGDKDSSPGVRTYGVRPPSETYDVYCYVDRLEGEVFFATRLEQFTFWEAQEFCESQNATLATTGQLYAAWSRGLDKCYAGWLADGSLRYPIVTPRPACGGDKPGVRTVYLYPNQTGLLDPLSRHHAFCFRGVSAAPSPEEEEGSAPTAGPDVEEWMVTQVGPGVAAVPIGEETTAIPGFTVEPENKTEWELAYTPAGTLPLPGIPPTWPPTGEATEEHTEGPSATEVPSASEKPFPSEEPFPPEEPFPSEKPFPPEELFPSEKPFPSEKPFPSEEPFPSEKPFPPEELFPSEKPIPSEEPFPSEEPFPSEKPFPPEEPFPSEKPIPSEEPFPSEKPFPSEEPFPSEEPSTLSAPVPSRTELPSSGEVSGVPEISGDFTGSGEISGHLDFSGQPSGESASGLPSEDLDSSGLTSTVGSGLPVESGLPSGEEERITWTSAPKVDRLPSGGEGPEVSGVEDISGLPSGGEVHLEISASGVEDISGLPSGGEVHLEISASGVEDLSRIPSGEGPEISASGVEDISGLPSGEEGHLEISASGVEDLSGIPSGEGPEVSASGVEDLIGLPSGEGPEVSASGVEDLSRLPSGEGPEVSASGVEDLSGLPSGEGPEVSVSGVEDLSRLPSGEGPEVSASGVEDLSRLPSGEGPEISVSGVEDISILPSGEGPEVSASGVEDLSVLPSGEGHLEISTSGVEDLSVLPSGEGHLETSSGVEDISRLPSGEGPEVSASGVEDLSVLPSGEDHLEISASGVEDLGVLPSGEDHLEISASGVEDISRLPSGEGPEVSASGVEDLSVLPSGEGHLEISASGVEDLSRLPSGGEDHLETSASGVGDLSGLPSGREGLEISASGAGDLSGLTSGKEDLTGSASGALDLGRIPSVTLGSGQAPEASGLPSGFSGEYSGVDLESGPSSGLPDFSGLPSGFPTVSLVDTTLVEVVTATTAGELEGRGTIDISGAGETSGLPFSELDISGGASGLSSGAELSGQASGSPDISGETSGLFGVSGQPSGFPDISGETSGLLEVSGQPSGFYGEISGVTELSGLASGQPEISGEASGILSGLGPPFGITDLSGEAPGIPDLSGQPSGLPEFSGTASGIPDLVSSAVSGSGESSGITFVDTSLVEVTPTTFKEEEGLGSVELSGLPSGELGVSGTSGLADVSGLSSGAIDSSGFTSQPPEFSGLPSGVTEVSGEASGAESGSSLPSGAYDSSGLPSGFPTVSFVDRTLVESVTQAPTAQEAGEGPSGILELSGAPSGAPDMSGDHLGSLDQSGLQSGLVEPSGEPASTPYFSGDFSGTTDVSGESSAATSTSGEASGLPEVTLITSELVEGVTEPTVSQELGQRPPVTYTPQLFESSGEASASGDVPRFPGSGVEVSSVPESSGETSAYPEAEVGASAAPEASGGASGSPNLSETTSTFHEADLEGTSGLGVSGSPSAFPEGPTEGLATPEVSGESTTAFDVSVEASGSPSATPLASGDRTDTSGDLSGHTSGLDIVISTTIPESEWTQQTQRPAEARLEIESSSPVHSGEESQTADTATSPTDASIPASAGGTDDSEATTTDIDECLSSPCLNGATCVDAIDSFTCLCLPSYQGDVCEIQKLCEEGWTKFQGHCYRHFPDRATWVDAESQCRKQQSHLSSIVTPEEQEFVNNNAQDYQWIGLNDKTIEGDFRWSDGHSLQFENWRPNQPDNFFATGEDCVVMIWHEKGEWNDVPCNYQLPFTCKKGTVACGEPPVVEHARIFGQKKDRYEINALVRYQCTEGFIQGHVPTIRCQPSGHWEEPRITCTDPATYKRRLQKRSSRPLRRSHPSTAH
Chain of Fc-tagged extracellular domain of mouse RPTPσ (wild type) (mouse) (B0V2N1 30-1257): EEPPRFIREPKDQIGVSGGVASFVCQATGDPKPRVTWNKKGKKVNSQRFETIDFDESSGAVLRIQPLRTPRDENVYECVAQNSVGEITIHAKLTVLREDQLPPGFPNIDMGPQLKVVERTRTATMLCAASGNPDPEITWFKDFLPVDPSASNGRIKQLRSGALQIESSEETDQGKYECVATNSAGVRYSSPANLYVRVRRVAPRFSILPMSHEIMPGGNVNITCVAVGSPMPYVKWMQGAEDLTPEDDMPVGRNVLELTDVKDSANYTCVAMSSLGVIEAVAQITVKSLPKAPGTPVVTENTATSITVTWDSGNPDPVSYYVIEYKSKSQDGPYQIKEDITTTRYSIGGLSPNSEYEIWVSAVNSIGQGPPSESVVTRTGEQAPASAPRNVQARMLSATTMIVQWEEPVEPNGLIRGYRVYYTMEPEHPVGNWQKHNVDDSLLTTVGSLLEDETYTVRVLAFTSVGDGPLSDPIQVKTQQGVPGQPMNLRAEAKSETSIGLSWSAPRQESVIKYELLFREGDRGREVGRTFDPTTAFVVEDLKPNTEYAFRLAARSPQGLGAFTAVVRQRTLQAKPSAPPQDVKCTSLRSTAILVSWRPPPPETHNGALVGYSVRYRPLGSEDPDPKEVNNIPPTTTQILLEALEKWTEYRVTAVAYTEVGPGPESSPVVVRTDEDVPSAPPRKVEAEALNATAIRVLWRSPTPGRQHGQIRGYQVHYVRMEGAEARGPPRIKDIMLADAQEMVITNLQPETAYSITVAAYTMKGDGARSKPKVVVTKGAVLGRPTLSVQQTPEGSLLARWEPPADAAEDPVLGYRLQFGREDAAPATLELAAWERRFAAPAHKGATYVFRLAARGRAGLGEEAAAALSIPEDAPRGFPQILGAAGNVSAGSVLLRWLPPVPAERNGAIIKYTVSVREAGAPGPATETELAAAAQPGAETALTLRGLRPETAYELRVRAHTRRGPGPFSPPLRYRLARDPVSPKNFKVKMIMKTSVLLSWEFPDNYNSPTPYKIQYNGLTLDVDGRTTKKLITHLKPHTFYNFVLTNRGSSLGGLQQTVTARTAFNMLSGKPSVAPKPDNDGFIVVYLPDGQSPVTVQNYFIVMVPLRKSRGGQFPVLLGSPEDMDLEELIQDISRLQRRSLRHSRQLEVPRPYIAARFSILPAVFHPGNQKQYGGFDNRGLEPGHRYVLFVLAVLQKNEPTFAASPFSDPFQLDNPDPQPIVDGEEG

“biotinylated bovine aggrecan, P13608 17-2364 (ligand; biotinylated (sites not stated); natural chondroitin sulphate side chains of the proteoglycan)” gave a fold increase of binding in the presence of protamine of 2 fold.
